Experimental data from paper PMC3089955.

T1: DENV-2 NS1 wild type without hexa-histidine tag (Dengue virus serotype 2 (DENV-2), strain 16681), P29990
T1 chain: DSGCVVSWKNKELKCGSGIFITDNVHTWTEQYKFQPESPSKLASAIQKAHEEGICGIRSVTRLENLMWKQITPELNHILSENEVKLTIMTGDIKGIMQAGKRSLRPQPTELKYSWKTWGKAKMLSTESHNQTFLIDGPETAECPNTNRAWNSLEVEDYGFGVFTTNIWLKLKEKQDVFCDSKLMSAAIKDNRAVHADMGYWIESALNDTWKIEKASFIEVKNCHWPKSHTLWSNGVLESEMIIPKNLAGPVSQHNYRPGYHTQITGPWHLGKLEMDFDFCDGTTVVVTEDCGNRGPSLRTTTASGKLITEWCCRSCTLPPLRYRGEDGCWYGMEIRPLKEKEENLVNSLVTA

B1: DENV-2 NS1 wild type without hexa-histidine tag, P29990 776-1127 (natural protein)
chain: T1 chain

Assays:
[1] = target: DENV-2 NS1 N130Q with carboxy-terminal hexa-histidine tag (Dengue virus serotype 2 (DENV-2), strain 16681); assay: non-reducing SDS-PAGE with Western blot
[2] = target: T1, DENV-2 NS1 wild type without …; assay: SEC; details: remark: other sources report otherwise

Molecule | stoichiometry N [1] | stoichiometry N [2]
DENV-2 NS1 N130Q with carboxy-terminal hexa-histidine tag (natural protein) | 2 | 
B1 |  | 6
